Where “and” joins values, the source holds several entries; their conditions need not be identical. Identical values can stand only once.
Tests used:
[1] = target: Centered nucleosome core particle NCP146b (Xenopus laevis); assay: native gel or EMSA; low ionic strength: 0.25X TBE (0.25X TAE for 12-array); preassembled NCP or array incubated with HMGN or NBD peptide about 30 min at room temperature, electrophoresis at 4°C; 0.5 μM nucleosome core sites; NCP on 6% polyacrylamide, array on 1% agarose/1.3% polyacrylamide
[2] = target: Nucleosome core particle NCP147 (Xenopus laevis); assay: as above
[3] = target: Nucleosome core particle NCP-601 (Xenopus laevis); assay: as above
[4] = target: Nucleosome core particle NCP147 (Xenopus laevis); assay: native gel or EMSA; near physiological ionic strength: 1X TBE (89 mM Tris-HCl, 89 mM boric acid, 1.0 mM EDTA, pH 8.3); preassembled NCP or array incubated with HMGN about 30 min at room temperature, electrophoresis at 4°C; 0.5 μM nucleosome core sites
[5] = target: Nucleosome core particle NCP-601 (Xenopus laevis); assay: as above

stoichiometry N (HMGN : nucleosome) [1] | stoichiometry N (HMGN : nucleosome) [2] | stoichiometry N (HMGN : nucleosome) [3] | stoichiometry N (HMGN : nucleosome core particle) [4] | stoichiometry N (HMGN : nucleosome core particle) [5] | Substance
1 and 2 | 1 and 2 | 1 and 2 | 2 | 2 | Xenopus laevis HMGN1 (natural protein)
1 and 2 | 1 and 2 | 2 and 1 | 2 | 2 | Xenopus laevis HMGN2 (natural protein)
